# Reference: PMC3179271
# Columns and labels:
# [1] = molecular target: FLAG-V5-Blow (Drosophila); assay: co-IP
# [2] = molecular target: FLAG-V5-WASP (Drosophila); assay: co-IP
substance,measurement,setting,value
FLAG-Sltr (natural protein),Kd,[1],48.1 nM
same,Kd,[2],6.7 nM
